The target of test [1] is T1, fibrinogen-like globe (FBG) domain of human tenascin-C (human, UniProt P24821).
T1 construct: tenascin-C, human, fibrinogen-like globe (FBG) domain at the C-terminus; contact residues are numbered A2115 to H2175; the constructs used for SPR, the crystal and the solid phase assay may differ; also called human FBG; recombinant human tenascin-C FBG; source: recombinant
The test can be described thus: ELISA; solid phase binding assay: recombinant human TLR4 coated onto a 96-well plate; recombinant human FBG preincubated with C3 or isotype control antibody was added; bound FBG detected. The conditions noted are these: both partners purified. A general note: ELISA stands for enzyme-linked immunosorbent assay.

The target in test [2] is T2, FBG domain of rat tenascin-C (Rattus norvegicus, UniProt A0A8I6AG89).
T2 construct: tenascin-C, rat, fibrinogen-like globe (FBG) domain; Printed only as 'rat antigen'; construct in the supplementary methods; also called rat antigen
Put plainly: SPR; at 37°C; C3 on human and rat FBG; who was immobilised not stated. On the technique in general: Surface plasmon resonance follows binding to a sensor surface in real time, without labels.

Test [3] has as its target T1, fibrinogen-like globe (FBG) domain of …. The description is as above.

T1 sequence (P24821 1975-2201): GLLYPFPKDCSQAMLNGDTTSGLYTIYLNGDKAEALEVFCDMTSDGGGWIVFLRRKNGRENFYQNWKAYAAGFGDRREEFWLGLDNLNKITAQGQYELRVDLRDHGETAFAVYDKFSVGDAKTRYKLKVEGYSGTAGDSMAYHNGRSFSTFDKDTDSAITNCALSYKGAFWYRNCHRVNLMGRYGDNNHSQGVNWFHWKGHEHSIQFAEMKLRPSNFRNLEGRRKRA

B1: monoclonal antibody C3 (antibody, V domains shown)
VH: QVQLVESGGGLVQPGRSLRLSCAASGFTFDDYAMHWVRQAPGKGLEWVSGISGSGGSTYYADSVKGRFTISRDNAKNSLYLQMNSLRAEDTALYYCAKSYQSDEDAFDIWGQGTMVTVSS
VL: DIQMTQSPASLPTPVGDRVTITCRASQYIQGFLNWYQQKPGKAPKLLIYDASNLETGVPSRFSGSGSGTDFTLTISSLQPEDFATYYCQQSYSTPQTFGQGTKVDIK
notes: variable part as the heavy chain of m2 (crystal structure solved here, Fab chain B); as the light chain of m2 (crystal structure solved here, Fab chain C); in the solid phase and cell assays it is compared with an isotype control antibody; also called clone C3
The IC50 is the concentration that gives 50% inhibition. By Kd is commonly meant a measure of binding affinity in units of concentration. Consider B1, for which the IC50 in test [1] was 45.6 nM. In addition, the Kd in test [2] was determined as 1.2 nM; in test [3], 0.07 nM.
